Assay results: US20260167699A1 (Chugai, published 2026)
Changes are numbered by the printed parent chain.

T1: FcγRIIa(R) extracellular domain with C-terminal His tag (human, UniProt P12318 34-217)
T1 construct: extracellular domain; R131 allotype; also called 2aR; CD32
T1 sequence: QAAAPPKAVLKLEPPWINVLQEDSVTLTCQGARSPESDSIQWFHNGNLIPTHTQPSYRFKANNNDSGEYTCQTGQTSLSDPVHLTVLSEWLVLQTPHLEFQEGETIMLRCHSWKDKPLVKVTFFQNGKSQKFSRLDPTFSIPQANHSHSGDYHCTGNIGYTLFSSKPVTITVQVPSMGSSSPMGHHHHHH

T2: FcγRIIa(H) extracellular domain with C-terminal His tag (human, UniProt P12318 34-217)
T2 construct: extracellular domain; H131 allotype; also called 2aH; CD32
T2 sequence: T1 sequence with R134H

T3: FcγRIIb extracellular domain with C-terminal His tag (human, UniProt P31994 43-217)
T3 construct: extracellular domain; also called 2b; CD32
T3 sequence: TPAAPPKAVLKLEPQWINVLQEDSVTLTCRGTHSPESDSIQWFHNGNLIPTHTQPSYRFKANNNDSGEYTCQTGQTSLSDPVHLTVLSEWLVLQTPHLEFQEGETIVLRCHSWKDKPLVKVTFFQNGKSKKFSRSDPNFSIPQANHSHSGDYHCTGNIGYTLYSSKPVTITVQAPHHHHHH

T4: FcγRIIa(R) (human, UniProt P12318 34-217)
T4 construct: extracellular domain; also called 2aR
T4 sequence: T1 sequence

T5: FcγRIIa(H) (human, UniProt P12318 34-217)
T5 construct: extracellular domain; also called 2aH
T5 sequence: T1 sequence with R134H

T6: FcγRIIb (human, UniProt P31994 43-217)
T6 construct: extracellular domain; also called 2b
T6 sequence: T3 sequence

B1: GpH7-A5/GpH7-B3 variant T335_14T/GpL16-k0 (antibody, human IgG1, kappa)
heavy 1: not shown
heavy 2: not shown
light: DIVMTQSPLSLPVTPGEPASISCQASESLVHSNRNTYLHWYLQKPGQSPQLLIYKVSNRFSGVPDRFSGSGSGTDFTLKISRVEAEDVGVYYCSQNTHVPPTFGQGTKVEIERTVAAPSVFIFPPSDEQLKSGTASVVCLLNNFYPREAKVQWKVDNALQSGNSQESVTEQDSKDSTYSLSSTLTLSKADYEKHKVYACEVTHQGLSSPVTKSFNRGEC
notes: also called He Ab
B2: GpH7-A5/GpH7-B3 variant E333_01G/GpL16-k0 (antibody, human IgG1, kappa)
heavy 1: not shown
heavy 2: not shown
light: B1 light
notes: heterodimerized IgG1 (He Ab), mutation in one H chain only; also called He Ab
B3: GpH7-A5/GpH7-B3 variant E333_14T/GpL16-k0 (antibody, human IgG1, kappa)
heavy 1: not shown
heavy 2: not shown
light: B1 light
notes: as for B2
B4: GpH7-A5/GpH7-B3 variant A330_06M/GpL16-k0 (antibody, human IgG1, kappa)
heavy 1: not shown
heavy 2: not shown
light: B1 light
notes: as for B2
B5: GpH7-A5/GpH7-B3 variant E333_13S/GpL16-k0 (antibody, human IgG1, kappa)
heavy 1: not shown
heavy 2: not shown
light: B1 light
notes: as for B2
B6: GpH7-A5/GpH7-B3 variant E333_16H/GpL16-k0 (antibody, human IgG1, kappa)
heavy 1: not shown
heavy 2: not shown
light: B1 light
notes: as for B2
B7: GpH7-A5/GpH7-B3 variant E333_12R/GpL16-k0 (antibody, human IgG1, kappa)
heavy 1: not shown
heavy 2: not shown
light: B1 light
notes: as for B2
B8: GpH7-A5/GpH7-B3 variant A330_15Y/GpL16-k0 (antibody, human IgG1, kappa)
heavy 1: not shown
heavy 2: not shown
light: B1 light
notes: as for B2
B9: GpH7-A5/GpH7-B3 variant E333_05P/GpL16-k0 (antibody, human IgG1, kappa)
heavy 1: not shown
heavy 2: not shown
light: B1 light
notes: as for B2
B10: GpH7-A5/GpH7-B3 variant E333_11K/GpL16-k0 (antibody, human IgG1, kappa)
heavy 1: not shown
heavy 2: not shown
light: B1 light
notes: as for B2
B11: GpH7-A5/GpH7-B3 variant E333_07I/GpL16-k0 (antibody, human IgG1, kappa)
heavy 1: not shown
heavy 2: not shown
light: B1 light
notes: as for B2
B12: GpH7-A5/GpH7-B3 variant A330_05P/GpL16-k0 (antibody, human IgG1, kappa)
heavy 1: not shown
heavy 2: not shown
light: B1 light
notes: as for B2
B13: GpH7-A5/GpH7-B3 variant E333_03V/GpL16-k0 (antibody, human IgG1, kappa)
heavy 1: not shown
heavy 2: not shown
light: B1 light
notes: as for B2
B14: GpH7-A5/GpH7-B3 variant A330_11K/GpL16-k0 (antibody, human IgG1, kappa)
heavy 1: not shown
heavy 2: not shown
light: B1 light
notes: as for B2
B15: GpH7-A5/GpH7-B3 variant E333_06M/GpL16-k0 (antibody, human IgG1, kappa)
heavy 1: not shown
heavy 2: not shown
light: B1 light
notes: as for B2
B16: GpH7-A5/GpH7-B3 variant E333_09D/GpL16-k0 (antibody, human IgG1, kappa)
heavy 1: not shown
heavy 2: not shown
light: B1 light
notes: as for B2
B17: GpH7-A5/GpH7-B3 variant E333_15Y/GpL16-k0 (antibody, human IgG1, kappa)
heavy 1: not shown
heavy 2: not shown
light: B1 light
notes: as for B2
B18: GpH7-A5/GpH7-B3 variant E333_04F/GpL16-k0 (antibody, human IgG1, kappa)
heavy 1: not shown
heavy 2: not shown
light: B1 light
notes: as for B2
B19: GpH7-A5/GpH7-B3 variant E333_02A/GpL16-k0 (antibody, human IgG1, kappa)
heavy 1: not shown
heavy 2: not shown
light: B1 light
notes: as for B2
B20: GpH7-A5/GpH7-B3 variant A330_12R/GpL16-k0 (antibody, human IgG1, kappa)
heavy 1: not shown
heavy 2: not shown
light: B1 light
notes: as for B2
B21: GpH7-A5/GpH7-B3 variant E333_08L/GpL16-k0 (antibody, human IgG1, kappa)
heavy 1: not shown
heavy 2: not shown
light: B1 light
notes: as for B2
B22: GpH7-A5/GpH7-B3 variant Y300_10E/GpL16-k0 (antibody, human IgG1, kappa)
heavy 1: not shown
heavy 2: not shown
light: B1 light
notes: He Ab: heterodimerized IgG1, one H chain mutated
B23: GpH7-A5/GpH7-B3 variant Y300_16H/GpL16-k0 (antibody, human IgG1, kappa)
heavy 1: not shown
heavy 2: not shown
light: B1 light
notes: as for B22
B24: GpH7-A5/GpH7-B3 variant Y300_11K/GpL16-k0 (antibody, human IgG1, kappa)
heavy 1: not shown
heavy 2: not shown
light: B1 light
notes: as for B22
B25: GpH7-A5/GpH7-B3 variant Y300_13S/GpL16-k0 (antibody, human IgG1, kappa)
heavy 1: not shown
heavy 2: not shown
light: B1 light
notes: as for B22
B26: GpH7-A5/GpH7-B3 variant Y300_19Q/GpL16-k0 (antibody, human IgG1, kappa)
heavy 1: not shown
heavy 2: not shown
light: B1 light
notes: as for B22
B27: GpH7-A5/GpH7-B3 variant Y300_20W/GpL16-k0 (antibody, human IgG1, kappa)
heavy 1: not shown
heavy 2: not shown
light: B1 light
notes: as for B22
B28: GpH7-A5/GpH7-B3 variant Y300_14T/GpL16-k0 (antibody, human IgG1, kappa)
heavy 1: not shown
heavy 2: not shown
light: B1 light
notes: as for B22
B29: GpH7-A5/GpH7-B3 variant Y300_18N/GpL16-k0 (antibody, human IgG1, kappa)
heavy 1: not shown
heavy 2: not shown
light: B1 light
notes: as for B22

These binders were tested against T7, FcγRIa extracellular domain with C-terminal His tag (human, UniProt P12314 16-292) (assay: SPR; % of GpH7-A5/GpH7-B3/GpL16-k0).
T7 construct: extracellular domain; also called 1a; CD64
T7 sequence (P12314 other isoform, or with tags, fused parts or gaps): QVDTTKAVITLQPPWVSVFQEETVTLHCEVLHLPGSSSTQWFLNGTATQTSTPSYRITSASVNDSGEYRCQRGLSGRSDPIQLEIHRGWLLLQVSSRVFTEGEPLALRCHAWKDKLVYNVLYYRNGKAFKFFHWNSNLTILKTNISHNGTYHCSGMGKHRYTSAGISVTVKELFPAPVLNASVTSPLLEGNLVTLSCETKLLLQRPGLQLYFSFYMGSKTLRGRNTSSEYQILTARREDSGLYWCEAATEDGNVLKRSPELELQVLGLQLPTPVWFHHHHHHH

Row | Binder | He/Con 1a [%]
1 | B1 | 110
2 | B2 | 97.2
3 | B3 | 96.7
4 | B4 | 108
5 | B5 | 97.6
6 | B6 | 95.4
7 | B7 | 96.7
8 | B8 | 108
9 | B9 | 96.9
10 | B10 | 96.6
11 | B11 | 96.5
12 | B12 | 105
13 | B13 | 99.4
14 | B14 | 107
15 | B15 | 96.7
16 | B16 | 98
17 | B17 | 95.8
18 | B18 | 96.9
19 | B19 | 97.7
20 | B20 | 103
21 | B21 | 96.8

Each binder was assayed against T1, FcγRIIa(R) extracellular domain with … (assay: SPR; % of GpH7-A5/GpH7-B3/GpL16-k0).

Row | Binder | He/Con 2aR [%]
22 | B1 | 116
23 | B2 | 127
24 | B3 | 135
25 | B4 | 107
26 | B5 | 125
27 | B6 | 119
28 | B7 | 127
29 | B8 | 114
30 | B9 | 143
31 | B10 | 128
32 | B11 | 142
33 | B12 | 129
34 | B13 | 135
35 | B14 | 124
36 | B15 | 132
37 | B16 | 141
38 | B17 | 137
39 | B18 | 139
40 | B19 | 128
41 | B20 | 116
42 | B21 | 140

What follows are binders tested against T2, FcγRIIa(H) extracellular domain with … (assay: SPR; % of GpH7-A5/GpH7-B3/GpL16-k0).

Row | Binder | He/Con 2aH [%]
43 | B1 | 112
44 | B2 | 112
45 | B3 | 115
46 | B4 | 101
47 | B5 | 115
48 | B6 | 114
49 | B7 | 110
50 | B8 | 106
51 | B9 | 112
52 | B10 | 112
53 | B11 | 113
54 | B12 | 92.6
55 | B13 | 112
56 | B14 | 118
57 | B15 | 110
58 | B16 | 119
59 | B17 | 114
60 | B18 | 116
61 | B19 | 115
62 | B20 | 116
63 | B21 | 116

What follows are binders tested against T3, FcγRIIb extracellular domain with … (assay: SPR; % of GpH7-A5/GpH7-B3/GpL16-k0).

Row | Binder | He/Con 2b [%]
64 | B1 | 116
65 | B2 | 105
66 | B3 | 111
67 | B4 | 90.9
68 | B5 | 106
69 | B6 | 108
70 | B7 | 104
71 | B8 | 107
72 | B9 | 126
73 | B10 | 104
74 | B11 | 124
75 | B12 | 154
76 | B13 | 120
77 | B14 | 107
78 | B15 | 110
79 | B16 | 122
80 | B17 | 122
81 | B18 | 122
82 | B19 | 108
83 | B20 | 95.8
84 | B21 | 123

These binders were tested against T8, FcγRIIIa extracellular domain with C-terminal His tag (human, UniProt P08637 17-208) (assay: SPR; % of GpH7-A5/GpH7-B3/GpL16-k0).
T8 construct: extracellular domain; also called 3a; CD16
T8 sequence (P08637 other isoform, or with tags, fused parts or gaps): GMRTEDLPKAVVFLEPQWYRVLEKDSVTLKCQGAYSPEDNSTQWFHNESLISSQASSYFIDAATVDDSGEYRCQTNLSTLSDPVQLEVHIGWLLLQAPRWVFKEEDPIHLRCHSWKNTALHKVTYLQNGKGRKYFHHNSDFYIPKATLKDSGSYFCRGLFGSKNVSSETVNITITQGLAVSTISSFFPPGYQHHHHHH

Row | Binder | He/Con 3a [%]
85 | B1 | 104
86 | B2 | 101
87 | B3 | 100
88 | B4 | 139
89 | B5 | 106
90 | B6 | 106
91 | B7 | 92.2
92 | B8 | 122
93 | B9 | 100
94 | B10 | 97.7
95 | B11 | 100
96 | B12 | 152
97 | B13 | 106
98 | B14 | 91.8
99 | B15 | 100
100 | B16 | 115
101 | B17 | 101
102 | B18 | 104
103 | B19 | 108
104 | B20 | 77.3
105 | B21 | 102

What follows are binders tested against T9, FcγRIa (human, UniProt P12314 16-292) (assay: SPR, relative to GpH7-A5/GpH7-B3/GpL16-k0 =100).
T9 construct: extracellular domain; also called 1a
T9 sequence (P12314 other isoform, or with tags, fused parts or gaps): as the sequence (P12314 other isoform, or with tags, fused parts or gaps) above

Row | Binder | He/Con 1a [%]
106 | B22 | 108
107 | B23 | 105
108 | B24 | 101
109 | B25 | 105
110 | B26 | 106
111 | B27 | 106
112 | B28 | 105
113 | B29 | 101

The binders below were run against T4, FcγRIIa(R) (assay: SPR, relative to GpH7-A5/GpH7-B3/GpL16-k0 =100).

Row | Binder | He/Con 2aR [%]
114 | B22 | 127
115 | B23 | 103
116 | B24 | 73.1
117 | B25 | 72.4
118 | B26 | 119
119 | B27 | 104
120 | B28 | 78.6
121 | B29 | 96.2

What follows are binders tested against T5, FcγRIIa(H) (assay: SPR, relative to GpH7-A5/GpH7-B3/GpL16-k0 =100).

Row | Binder | He/Con 2aH [%]
122 | B22 | 108
123 | B23 | 105
124 | B24 | 74.2
125 | B25 | 97.8
126 | B26 | 107
127 | B27 | 103
128 | B28 | 104
129 | B29 | 101

Each binder was assayed against T6, FcγRIIb (assay: SPR, relative to GpH7-A5/GpH7-B3/GpL16-k0 =100).

Row | Binder | He/Con 2b [%]
130 | B22 | 175
131 | B23 | 114
132 | B24 | 67.4
133 | B25 | 70.4
134 | B26 | 142
135 | B27 | 110
136 | B28 | 72.7
137 | B29 | 92.7
